# Source: US20030124602
# System: Flag epitope tagged CTMPs (F.CTMPs; CTMP starting at the natural ATG of the cDNA)
# Sequence (chain, as listed by the source): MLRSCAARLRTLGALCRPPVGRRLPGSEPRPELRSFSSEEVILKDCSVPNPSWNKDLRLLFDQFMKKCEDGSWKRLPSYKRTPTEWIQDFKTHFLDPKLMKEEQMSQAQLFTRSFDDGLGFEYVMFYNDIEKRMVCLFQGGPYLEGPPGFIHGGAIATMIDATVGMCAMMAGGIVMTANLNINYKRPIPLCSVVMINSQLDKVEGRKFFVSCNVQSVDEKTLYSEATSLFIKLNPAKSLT
substance,measurement,value
"HA epitope-tagged PKB alpha (HA-PKBα, pCMV5-HA-PKBα)","phosphorylation of PKB on Thr 308 and Ser 473, Western blot with phospho-specific antibodies",CTMP expression leads to a reduction of phosphorylation on both residues but most notably on the S473 site
